Measured values from the supplement of paper PMC7877785.
± gives the uncertainty stated by the source.

Experiment: self-splicing fitness, log relative to wild type (ln ratio); higher = more splicing; Tetrahymena group I intron in knt gene, E. coli kanamycin selection, DiMSum; sequences stand for … in CUCUCU…GGAGGGAAAAGUUAUCAGGCAUGCACCUGGUAGCUAGUCUUUAAACCAAUAGAUUGCAUCGGUUUAAAAGGCAAGACCGUCAAAUUGCGGGAAAGGGGUCAACAGCCGUUCAGUACCAAGUCUCAGGGGAAACUUUGAGAUGGCCUUGCAAAGGGUAUGGUAAUAAGCUGACGGACAUGGUCCUAACCACGCAGCCAAGUCCUAAGUCAACAGAUCUUCUGUUGAUAUGGAUGCAGUUCACAGACUAAAUGUCGGUCGGGGAAGAUGUAUUCUUCUCAUAAGAUAUAGUCGGACCUCUCCUUAAUGGGAGCUAGCGGAUGAAGUGAUGCAACACUGGAGCCGCUGGGAACUAAUUUGUAUGCGAAAGUAUAUUGAUUAGUUUUGGAGUACUCGUGGUCG
Summary of the method: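 Library with all eight P1ex-region intron nucleotides randomised, intron inside the knt kanamycin-resistance gene on pET-22b(+), in E. coli BL21(DE3). Cells grew overnight at 37°C or 30°C on LB agar with or without 25 μg/mL kanamycin (plus 100 μg/mL carbenicillin, 50 μM IPTG, 0.2% rhamnose), in six replicate transformations. Pooled colonies were amplicon-sequenced on Illumina HiSeq 2500. DiMSum fitness is the error-weighted combination of wild-type-normalised replicate fold changes, kanamycin versus none.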

Row | Sequence | self-splicing fitness (ln) (30 °C) | self-splicing fitness (ln) (37 °C)
1 | GUUAAGCAAUAUUACGCCGA | -1.83 ± 0.19 | -0.947 ± 0.18
2 | GCUUAGCAAUAUUACGACUU | 0.0581 ± 0.092 | 0.248 ± 0.1
3 | CUAAAGCAAUAUUACGUCAC | -2.66 ± 0.14 | -2.62 ± 0.22
4 | AUAAAGCAAUAUUACGUCCC | -0.201 ± 0.097 | -0.0866 ± 0.13
5 | AUCUAGCAAUAUUACGCAAC | -3.38 ± 0.37 | -2.06 ± 0.32
6 | UAUUAGCAAUAUUACGCGCG | -0.142 ± 0.17 | -0.528 ± 0.17
7 | CAUAAGCAAUAUUACGUUUU | -4.55 ± 0.22 | -2.54 ± 0.15
8 | UGCGAGCAAUAUUACGUACU | -2.58 ± 0.24 | -1.23 ± 0.22
9 | UCACAGCAAUAUUACGGUUA | -0.541 ± 0.072 | 0.291 ± 0.08
10 | CUCAAGCAAUAUUACGGGCA | -2.74 ± 0.15 | -2.48 ± 0.16
11 | ACCGAGCAAUAUUACGAAGA | -3.11 ± 0.28 | -2.54 ± 0.29
12 | GGAUAGCAAUAUUACGCGGU | -2.47 ± 0.33 | -2.6 ± 0.38
13 | GGGCAGCAAUAUUACGUGUU | -1.64 ± 0.072 | -0.906 ± 0.08
14 | AGGCAGCAAUAUUACGGAAU | -1.67 ± 0.057 | -0.844 ± 0.084
15 | CUCGAGCAAUAUUACGCAGG | -3.62 ± 0.3 | -2.36 ± 0.25
16 | CCGGAGCAAUAUUACGAUUA | -3.79 ± 0.37 | -1.17 ± 0.3
17 | ACGGAGCAAUAUUACGUGUU | -3.23 ± 0.13 | -2.56 ± 0.16
18 | UAAAAGCAAUAUUACGGAUC | -2.28 ± 0.29 | -1.81 ± 0.24
19 | UAAUAGCAAUAUUACGGCGU | -2.6 ± 0.19 | -1.6 ± 0.24
20 | ACCUAGCAAUAUUACGGGGU | -3.47 ± 0.16 | -2.61 ± 0.17
21 | UUGUAGCAAUAUUACGGCUG | -2.35 ± 0.23 | -0.373 ± 0.22
22 | CACAAGCAAUAUUACGACGG | -0.279 ± 0.071 | 0.557 ± 0.083
23 | UGGGAGCAAUAUUACGUAUC | -3.59 ± 0.39 | -2.56 ± 0.33
24 | GGGCAGCAAUAUUACGGAGG | -4.42 ± 0.26 | -3.03 ± 0.23

Row | Sequence | self-splicing fitness (ln) (30 °C) | self-splicing fitness (ln) (37 °C)
25 | CACAAGCAAUAUUACGUGUU | -3.95 ± 0.12 | -3.28 ± 0.13
26 | UAAAAGCAAUAUUACGCACA | -0.0521 ± 0.12 | 0.516 ± 0.16
27 | CACCAGCAAUAUUACGUCUU | -3.59 ± 0.12 | -2.64 ± 0.15
28 | AUAAAGCAAUAUUACGCUGG | -1.43 ± 0.088 | -0.293 ± 0.13
29 | CCUGAGCAAUAUUACGGGAA | -2.46 ± 0.27 | -0.571 ± 0.29
30 | CUAUAGCAAUAUUACGCGAG | -1.85 ± 0.29 | 0.335 ± 0.21
31 | GGCGAGCAAUAUUACGAGGC | -3.5 ± 0.23 | -3.02 ± 0.27
32 | UCUGAGCAAUAUUACGAGCU | -2.99 ± 0.24 | -2.23 ± 0.47
33 | GAAAAGCAAUAUUACGAUGC | -0.709 ± 0.08 | -0.503 ± 0.1
34 | GUUAAGCAAUAUUACGUAAA | -1.45 ± 0.12 | -1.43 ± 0.12
35 | CGUUAGCAAUAUUACGGGUC | -3.39 ± 0.41 | -2.01 ± 0.24
36 | GAUUAGCAAUAUUACGCCCU | -0.409 ± 0.49 | 
37 | CUGGAGCAAUAUUACGUCAC | -2.63 ± 0.39 | -2.53 ± 0.39
38 | AUAAAGCAAUAUUACGAAGC | -4.43 ± 0.46 | -0.791 ± 0.29
39 | CCCCAGCAAUAUUACGUCUU | -3.9 ± 0.12 | -2.04 ± 0.12
40 | UACGAGCAAUAUUACGGUGA | -3.12 ± 0.18 | -1.21 ± 0.13
41 | UGCAAGCAAUAUUACGCCCG | -0.288 ± 0.18 | 0.109 ± 0.2
42 | ACCUAGCAAUAUUACGAUUC | -1.72 ± 0.083 | -0.58 ± 0.097
43 | GGCGAGCAAUAUUACGAAGG | -3.8 ± 0.27 | -2.88 ± 0.4
44 | GAGUAGCAAUAUUACGCACA | -0.806 ± 0.14 | -0.0514 ± 0.18
45 | AGAUAGCAAUAUUACGUUCU | -2.38 ± 0.14 | -2.02 ± 0.17
46 | GGGAAGCAAUAUUACGUUGG | -3.77 ± 0.3 | -1.1 ± 0.24
47 | GCUUAGCAAUAUUACGAUUC | -0.128 ± 0.12 | 0.0621 ± 0.13
